In the supplement of paper PMC10724198:
± gives the standard deviation of the averaged measurements.

System: Saccharomyces cerevisiae
Experiment: protein stability index of tFT-peptide fusion (C-terminal peptide) (PSI (0-1 scale)); higher = more stable (slower turnover)
Settings: genetic background: wild type; temperature: 30 C
Protocol: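 Multiplexed protein stability (MPS) profiling in S. cerevisiae. Random 12-aa peptides (tFT-X12 library) are fused to the C-terminus of a sfGFP-mCherry tandem fluorescent timer, after mCherry and a GGGS linker. Cells are FACS-sorted into 8 mCherry/sfGFP bins and deep-sequenced. The protein stability index (PSI) is the read-weighted bin average, scaled from 0 (unstable) to 1 (stable). Only peptides with >10 reads are reported; cells were grown at 30 °C in SC-His with glucose.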
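Further: PSI is a weighted mean of sequencing reads over stability bins, variants kept only with over 10 reads, mCherry proximal and sfGFP distal, peptide attached via GGGS linker.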

Row | Sequence | protein stability index
1 | PPSPRNSDPPPL | 0.654 ± 0.071
2 | VVMTAVEGMWDG | 0.5914 ± 0.0059
3 | STGRTSVNLCFS | 0.706 ± 0.041
4 | DRLLLSPSPTPP | 0.739 ± 0.013
5 | PPRPVPRPHPRP | 0.674 ± 0.011
6 | LYSRSSRLFRPL | 0.804 ± 0.042
7 | KVDYIKKKNSRE | 0.7142 ± 0.0036
8 | RTPPCLTPLEET | 0.713 ± 0.037
9 | ATRSTLHDSMVS | 0.714 ± 0.059
10 | WVSDTNNTSRRK | 0.752 ± 0.051
11 | SRTPLASTPPHR | 0.761 ± 0.11
12 | PGKRPTERLAPS | 0.749 ± 0.026
13 | VVLFGAGGSWGG | 0.726 ± 0.063
14 | PEGPPRPPLHPS | 0.696 ± 0.019
15 | RLSPLTLPFCTS | 0.645 ± 0.06
16 | PLPPLPPPLSPP | 0.732 ± 0.067
17 | LGFLLSLVCLLG | 0.532 ± 0.015
18 | FGSRYLGVVSGC | 0.656 ± 0.037
19 | IGCSELSGLGGY | 0.769 ± 0.12
20 | NTRKNTTRKSQE | 0.637 ± 0.042
21 | HQVSLVLGGYLL | 0.702 ± 0.0099
22 | PPSRFPAPPSCA | 0.705 ± 0.059
23 | NQPPFPLRRPPT | 0.699 ± 0.048
24 | IDKRWVKKGGDK | 0.64 ± 0.071
25 | FLTPPIPLFSRL | 0.783 ± 0.058

Row | Sequence | protein stability index
26 | GRVGGRAGGRGR | 0.691 ± 0.039
27 | GPPPPPPPASPH | 0.715 ± 0.1
28 | KKQHTIKKKKKR | 0.734 ± 0.028
29 | WWPDILWLNTGW | 0.701 ± 0.035
30 | RGAHVTRPGTRD | 0.66 ± 0.034
31 | NTRIKGERNILH | 0.702 ± 0.026
32 | PLPPSPTRPPAN | 0.662 ± 0.0099
33 | HATFLPGLLTIS | 0.566 ± 0.026
34 | KGDPKLTKKKPL | 0.613 ± 0.077
35 | PPPPPRPPPSSP | 0.746 ± 0.058
36 | GPGRIPLTSALP | 0.63968 ± 0.00049
37 | GSRVGRATGRRR | 0.709 ± 0.014
38 | VVKEGGGCREGR | 0.64 ± 0.028
39 | SSPYPGNVVTST | 0.7133 ± 0.0015
40 | GGRGSGLVGCSL | 0.6 ± 0.065
41 | PPPGPSPLAAPP | 0.654 ± 0.056
42 | PPTPPLVPPTRH | 0.739 ± 0.016
43 | LSGLQGPGVSCC | 0.642 ± 0.021
44 | KTFGHQYVFIRK | 0.689 ± 0.013
45 | APPPPPVHPSSP | 0.734 ± 0.011
46 | ICGAGPKCCCSV | 0.635 ± 0.051
47 | PPPPPPVSPAAL | 0.69 ± 0.018
48 | PLPPSPLESVDT | 0.637 ± 0.027
49 | PSPSLPSACARP | 0.701 ± 0.012
50 | YCLLCSFVGPPA | 0.731 ± 0.19

Row | Sequence | protein stability index
51 | GGMAWGPVCGAG | 0.6906 ± 0.0018
52 | KKTQKKKKLIPQ | 0.7046 ± 0.0062
53 | RFPLSLRIPLPK | 0.63 ± 0.034
54 | GAVVGGRCFCRR | 0.715 ± 0.012
55 | KKNHYKAICNRR | 0.619 ± 0.0075
56 | SGGADYMDPRLT | 0.714 ± 0.027
57 | GVGLGGFGVWGV | 0.73 ± 0.074
58 | RPFSMGSNNIIR | 0.7 ± 0.022
59 | FCFFLLGLFCNL | 0.6 ± 0.062
60 | LWGVGWPLLGGL | 0.691 ± 0.04
61 | HVVSSGFLVGLG | 0.671 ± 0.039
62 | PSSSVICLLPPA | 0.636 ± 0.04
63 | WTLELSGWLRSE | 0.77 ± 0.079
64 | YGVFALFLSSLS | 0.576 ± 0.056
65 | TMRSVSLRSVAS | 0.675 ± 0.022
66 | CNLVCFRRFLYR | 0.62 ± 0.041
67 | SPSGLPLHFSFL | 0.704 ± 0.012
68 | FFFYFPSLNSFV | 0.696 ± 0.073
69 | QRSPNRISPADY | 0.798 ± 0.11
70 | CWRVGRERRGAG | 0.604 ± 0.013
71 | LVHGWERPSRVR | 0.661 ± 0.021
72 | CRTIILCLLTNL | 0.498 ± 0.024
73 | SCLGSGVSWGVW | 0.731 ± 0.0053
74 | PVEAPVGLVCAK | 0.568 ± 0.011
75 | PLFLYCRSAPRL | 0.817 ± 0.025

Row | Sequence | protein stability index
76 | AFGFCKVLSSGC | 0.68 ± 0.013
77 | PFPRSSPPPPPD | 0.652 ± 0.017
78 | KVLGSNNMRRSS | 0.702 ± 0.018
79 | ARSPLTIGLYPF | 0.6915 ± 0.0016
80 | PIPSVFSPFLFA | 0.641 ± 0.015
81 | NKFLRSVVRKHE | 0.671 ± 0.011
82 | LLSSPYPPDTFT | 0.6427 ± 0.0012
83 | PCTPLPRPRTSR | 0.702 ± 0.065
84 | ASSMLPVCLVTL | 0.588 ± 0.056
85 | LPFRLARLSQEG | 0.849 ± 0.016
86 | KKRMDKIKDKKI | 0.713 ± 0.098
87 | KVYTALWLLAGN | 0.698 ± 0.028
88 | RAYATPIPRSAI | 0.655 ± 0.046
89 | VWFSFGCGFFGR | 0.659 ± 0.061
90 | STGPFFMIKGSF | 0.72 ± 0.027
91 | PSCFFPFPPRPL | 0.727 ± 0.04
92 | PMPRHVPRPTTP | 0.674 ± 0.06
93 | CLGPGTFLLFFV | 0.5952 ± 0.0026
94 | RSPKGKKRVGKW | 0.714 ± 0.039
95 | KIYESPLLEIKI | 0.617 ± 0.032
96 | RVKFIEQASRFV | 0.764 ± 0.12
97 | VPPDTAPPPPRR | 0.6994 ± 0.0055
98 | STVESPNSLPPL | 0.676 ± 0.037
99 | VRRVRGSKFFWR | 0.609 ± 0.12
100 | SSPPFPLSLPLY | 0.682 ± 0.0017

Row | Sequence | protein stability index
101 | EDDQETPDTVQS | 0.66 ± 0.014
102 | RGRWLKNARLSM | 0.634 ± 0.065
103 | KVCGRIWWCPRA | 0.638 ± 0.03
104 | LPPAIPSTPPTP | 0.756 ± 0.0087
105 | PLRRPFSSPFLL | 0.59 ± 0.067
106 | TRPTQNKQIKNI | 0.6141 ± 0.0032
107 | MLYENNTAPLFI | 0.635 ± 0.045
108 | SHRDNEKPILSA | 0.75 ± 0.015
109 | FCPSLFLNPHSC | 0.6739 ± 0.00084
110 | PPSPLAPPCSPR | 0.6719 ± 0.0056
111 | KKEKEKRRDRWR | 0.661 ± 0.014
112 | VEAIKTSMFFLW | 0.711 ± 0.055
113 | HSNGADTFSEGE | 0.648 ± 0.033
114 | NSPTYEEKERHL | 0.82 ± 0.15
115 | GGGLGGGGFRGG | 0.749 ± 0.033
116 | VPFPFLPPSPSL | 0.87 ± 0.14
117 | PSSVRPFDPLLC | 0.724 ± 0.063
118 | PFEVPSSVISVP | 0.673 ± 0.13
119 | PPSAPPSPPHPP | 0.612 ± 0.011
120 | CAHKRTPRLGPE | 0.66 ± 0.077
121 | LRGILGTLINGV | 0.609 ± 0.097
122 | LRGVAIAARYPR | 0.766 ± 0.02
123 | AHEAHPITPRGP | 0.695 ± 0.042
124 | GEWRHVFSVTRC | 0.7475 ± 0.0025
125 | RKKKRKKKKTER | 0.647 ± 0.041

Row | Sequence | protein stability index
126 | GCGEGNVRPCEL | 0.6347 ± 0.0011
127 | GIDKTNHKQEKN | 0.691 ± 0.0085
128 | GGENGLGGLGVG | 0.626 ± 0.14
129 | PGCYRVPIHSFS | 0.7131 ± 0.0015
130 | LIPTIRRKHRAT | 0.625 ± 0.014
131 | PRTLTPVCPAPH | 0.702 ± 0.015
132 | RVPPGSPYPPLL | 0.7319 ± 0.0028
133 | PPPRPPGPPLPH | 0.702 ± 0.075
134 | TKIQFTITLIGK | 0.578 ± 0.028
135 | EEKEKKEKDGRR | 0.728 ± 0.042
136 | GGWCGGGGAWSG | 0.6985 ± 0.0027
137 | SRGRILAVRNTT | 0.713 ± 0.021
138 | LLGVRLGVLSFA | 0.58 ± 0.01
139 | FESYLRLGLGGR | 0.667 ± 0.09
140 | PACSPLPPLPLS | 0.7 ± 0.018
141 | ATDCHVYRPPDL | 0.6941 ± 0.0013
142 | PRPPARPPLRLL | 0.719 ± 0.017
143 | GGSRRGRRLLTQ | 0.699 ± 0.037
144 | PPPLPLPPPPPP | 0.58 ± 0.048
145 | PPCPFPTLPVTH | 0.73 ± 0.013
146 | IFLLLHSPSSAS | 0.697 ± 0.014
